The test has as its target GLP-2R (UniProt O95838). Nature of the test: cell-based or functional assay.

The values below come from US20220073563A1.

Chain of GLP-2R (O95838 whole entry): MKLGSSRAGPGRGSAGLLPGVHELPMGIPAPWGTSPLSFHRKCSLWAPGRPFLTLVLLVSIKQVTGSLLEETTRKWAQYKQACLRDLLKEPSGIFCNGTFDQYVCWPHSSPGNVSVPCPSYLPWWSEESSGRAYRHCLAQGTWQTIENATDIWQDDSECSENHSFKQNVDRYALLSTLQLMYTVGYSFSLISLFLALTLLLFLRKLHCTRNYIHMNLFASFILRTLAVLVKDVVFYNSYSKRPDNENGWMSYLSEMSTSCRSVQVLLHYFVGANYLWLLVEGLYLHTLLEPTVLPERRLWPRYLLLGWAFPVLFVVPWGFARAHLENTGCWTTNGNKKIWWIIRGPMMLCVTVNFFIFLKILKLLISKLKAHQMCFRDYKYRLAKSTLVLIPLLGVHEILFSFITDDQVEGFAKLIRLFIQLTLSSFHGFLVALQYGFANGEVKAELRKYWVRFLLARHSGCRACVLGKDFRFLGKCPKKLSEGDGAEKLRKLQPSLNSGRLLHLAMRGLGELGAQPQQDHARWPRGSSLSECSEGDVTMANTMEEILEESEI

Take “GLP-2 (from UniProt P01275 146-178) (peptide)”: the EC50, luciferase reporter in GLP-2R/Luc-CHO cells (6 h stimulation) amounted to 4.7 nM.
